Test results from patent publication US11613587B2, “Combination therapy of T cell activating bispecific antigen binding molecules and PD-1 axis binding antagonists” (Hoffmann-La Roche Inc., priority 2014, dated 2023).

Experiments:
huFolR1-Fc = experiment: Epitope binning (SPR); type: binding, human; conditions: 500 nM huFolR1-Fc, 500 nM binder
Description: 500 nM huFolR1-Fc was then captured for 60 s, followed by 500 nM of the different binders for 30 s. The surface was regenerated with two injections of 10 mM glycine pH 2 for 30 s each.

human FolR1 = target: T1, human FolR1 (Homo sapiens, UniProt P15328); experiment: SPR single injections of anti-FolR1 IgGs (Biacore T200); type: binding
T1 construct: the extracellular domain of the antigen linked to the hinge region of Fc-knob which is co-expressed with an Fc-hole molecule; made in house; host or cells: HEK293 EBNA
Excerpt: The immobilization level was about 300-400 RU.

[1] = test system: HEK cells transiently transfected with cyno FolR1; experiment: Cross-reactivity to cyno FolR1 on transfected HEK cells (flow cytometry); type: binding, cynomolgus; conditions: IgG
Excerpt: FIGS. 4A-B depict graphs summarizing cross-reactivity of FolR1 binders to cyFoLR1. Cross-reactivity of the FolR1 antibodies to cyno FolR1 was addressed on HEK cells transiently transfected with cyFolR1 by flow cytometry.
New FolR1 binders were generated via Phage Display using either a Fab library or a common light chain library using the CD3 light chain. The identified binders were converted into a human IgG1 format and binding to FolR1 high expressing HeLa cells was addressed. As reference molecule the human FolR1 binder Mov19 was included. […] In a next step the selected clones were tested for specificity to human FolR1 by excluding binding to the closely related human FolR2. HEK cells were transiently transfected with either human FolR1 or human FolR2 to address specificity. […] Therefore these clones were excluded from further characterization. In parallel cross-reactivity of the FolR1 clones to cyno FolR1 was addressed by performing binding studies to HEK cells transiently transfected with cyno FolR1. […] Subsequently three human FolR1 specific cyno cross-reactive binders were converted into TCB format and tested for induction of T cell killing and T cell activation. […] As reference molecule Mov19 FolR1 TCB was included in all studies. These FolR1 TCBs were then used to compare induction of internalization after binding to FolR1 on HeLa cells.

[2] = test system: erythrocytes (CD235a positive); experiment: Binding to erythrocytes (flow cytometry); design: species or system human

Molecule	binding of analyte in solution to huFolR1 captured on immobilized 16D5 TCB (huFolR1-Fc)	binding of analyte in solution to huFolR1 captured on immobilized 21A5 TCB (huFolR1-Fc)	binding of analyte in solution to huFolR1 captured on immobilized Mov19 IgG (huFolR1-Fc)	dissociation from huFolR1 (human FolR1)	binding to cyno FolR1 [1]	binding to erythrocytes [2]
36F2: anti-FolR1 clone from generic multi-framework Fab library (Vk_3_20/VH_1_46) (antibody, V domains shown) VH: QVQLVQSGAEVKKPGASVKVSCKASGYTFTSYYMHWVRQAPGQGLEWMGIINPSGGSTSYAQKFQGRVTMTHDTSTSTVYMELSSLRSEDTAVYYCARSFFTGFHLDYWGQGTLVTVSS VL: EIVLTQSPGTLSLSPGERATLSCRASQSVSSSYLAWYQQKPGQAPRLLIYGASSRATGIPDRFSGSGSGTDFTLTISRLEPEDFAVYYCQQYTNEHYYTFGQGTKVEIK	+ (+means binding)	+ (+means binding)	−	dissociated rapidly from huFolR1	bind comparably well human and cyno FoLR1	
Mov19: reference human FolR1 binder, control IgG (antibody, V domains shown) VH: QVQLQQSGAELVKPGASVKISCKASGYSFTGYFMNWVKQSHGKSLEWIGRIHPYDGDTFYNQNFKDKATLTVDKSSNTAHMELLSLTSEDFAVYYCTRYDGSRAMDYWGQGTTVTVSS VL: DIELTQSPASLAVSLGQRAIISCKASQSVSFAGTSLMHWYHQKPGQQPKLLIYRASNLEAGVPTRFSGSGSKTDFTLNIHPVEEEDAATYYCQQSREYPYTFGGGTKLEIK	+ (+means binding)	+ (+means binding)	−			could not observe any specific binding
